Reference: publication doi:10.1101/430827 (bioRxiv, 2018)
One block for each molecule: values may come before it.

Experiments:
[1] = target: WT/M2345 IRSp53 heterodimer (UniProt Q9UQB8); test: co-IP
[2] = target: M2345/WT IRSp53 heterodimer (UniProt Q9UQB8); test: co-IP
[3] = target: 2xFLAG-Eps8 (human, UniProt Q12929 1-822); test: other fluorescence titration
[4] = target: FLAG-Eps8/pIRSp53 complex (human | , UniProt Q12929 1-822; Q9UQB8-4 1-521, phosphorylated (pIRSp53, as m4)); test: pull-down
[5] = target: the molecule itself; test: crystal structure

Chain of 2xFLAG-Eps8 (Q12929 whole entry): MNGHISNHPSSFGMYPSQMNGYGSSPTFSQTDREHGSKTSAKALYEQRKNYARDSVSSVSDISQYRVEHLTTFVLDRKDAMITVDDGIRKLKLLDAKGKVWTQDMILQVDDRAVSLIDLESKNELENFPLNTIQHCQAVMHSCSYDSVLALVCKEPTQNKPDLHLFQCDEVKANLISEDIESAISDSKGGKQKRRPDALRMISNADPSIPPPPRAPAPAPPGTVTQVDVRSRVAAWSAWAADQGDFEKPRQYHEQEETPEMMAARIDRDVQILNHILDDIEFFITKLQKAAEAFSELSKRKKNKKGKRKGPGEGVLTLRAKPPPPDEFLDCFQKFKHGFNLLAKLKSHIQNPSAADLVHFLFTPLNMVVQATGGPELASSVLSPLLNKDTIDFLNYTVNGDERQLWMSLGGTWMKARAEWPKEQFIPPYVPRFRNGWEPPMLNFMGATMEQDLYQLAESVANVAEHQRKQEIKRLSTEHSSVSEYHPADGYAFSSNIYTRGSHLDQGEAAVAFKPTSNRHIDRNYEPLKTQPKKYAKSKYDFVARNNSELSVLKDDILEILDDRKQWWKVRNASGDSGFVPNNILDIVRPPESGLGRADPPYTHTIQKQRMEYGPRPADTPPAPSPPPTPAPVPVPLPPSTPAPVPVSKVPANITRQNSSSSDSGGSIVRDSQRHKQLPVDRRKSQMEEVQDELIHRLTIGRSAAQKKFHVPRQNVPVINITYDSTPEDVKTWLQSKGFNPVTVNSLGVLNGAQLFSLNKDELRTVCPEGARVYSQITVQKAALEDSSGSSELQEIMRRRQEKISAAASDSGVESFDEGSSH
Chain of FLAG-Eps8/pIRSp53 complex (Q12929 whole entry, one chain of several): as the sequence (Q12929 whole entry) above

percent of the amount that coimmunoprecipitates with WT/WT IRSp53 [1]: 50%
percent of the amount that coimmunoprecipitates with WT/WT IRSp53 [2]: 50%
Molecule: endogenous 14-3-3 (all isoforms included) (from UniProt P27348 1-245) (natural protein)

Kd [3]: 42 nM
B1: pIRSp53FS (natural protein, UniProt Q9UQB8-4 1-521, looked up)
chain: MSLSRSEEMHRLTENVYKTIMEQFNPSLRNFIAMGKNYEKALAGVTYAAKGYFDALVKMGELASESQGSKELGDVLFQMAEVHRQIQNQLEEMLKSFHNELLTQLEQKVELDSRYLSAALKKYQTEQRSKGDALDKCQAELKKLRKKSQGSKNPQKYSDKELQYIDAISNKQGELENYVSDGYKTALTEERRRFCFLVEKQCAVAKNSAAYHSKGKELLAQKLPLWQQACADPSKIPERAVQLMQQVASNGATLPSALSASKSNLVISDPIPGAKPLPVPPELAPFVGRMSAQESTPIMNGVTGPDGEDYSPWADRKAAQPKSLSPPQSQSKLSDSYSNTLPVRKSVTPKNSYATTENKTLPRSSSMAAGLERNGRMRVKAIFSHAAGDNSTLLSFKEGDLITLLVPEARDGWHYGESEKTKMRGWFPFSYTRVLDSDGSDRLHMSLQQGKSSSTGNLLDKDDLAIPPPDYGAASRAFPAQTASGFKQRPYSVAVPAFSQGLDDYGARSMSSGSGTLVCTV
modifications: natively phosphorylated in HEK293T cells; C230 and C519 labeled with the donor/acceptor pair fluorescein maleimide/rhodamine maleimide

binding result [4]: binds
B2: 14-3-3θ (natural protein, human)
chain: MEKTELIQKAKLAEQAERYDDMATCMKAVTEQGAELSNEERNLLSVAYKNVVGGRRSAWRVISSIEQKTDTSDKKLQLIKDYREKVESELRSICTTVLELLDKYLIANATNPESKVFYLKMKGDYFRYLAEVACGDDRKQTIDNSQGAYQEAFDISKKEMQPTHPIRLGLALNFSVFYYEILNNPELACTLAKTAFDEAIAELDTLNEDSYKDSTLIMQLLRDNLTLWTSDSAGEECDAAEGAEN
binding result [5]: binds
